According to US7229788B1, “Protease susceptibility II” (The University of Sydney, priority 1998, dated 2007):

T1: Gelatinase A (72 kDa gelatinase) (Homo sapiens, UniProt P08253)
T1 construct: purchased Boehringer Mannheim Roche Diagnostics
T1 sequence (P08253 110-660): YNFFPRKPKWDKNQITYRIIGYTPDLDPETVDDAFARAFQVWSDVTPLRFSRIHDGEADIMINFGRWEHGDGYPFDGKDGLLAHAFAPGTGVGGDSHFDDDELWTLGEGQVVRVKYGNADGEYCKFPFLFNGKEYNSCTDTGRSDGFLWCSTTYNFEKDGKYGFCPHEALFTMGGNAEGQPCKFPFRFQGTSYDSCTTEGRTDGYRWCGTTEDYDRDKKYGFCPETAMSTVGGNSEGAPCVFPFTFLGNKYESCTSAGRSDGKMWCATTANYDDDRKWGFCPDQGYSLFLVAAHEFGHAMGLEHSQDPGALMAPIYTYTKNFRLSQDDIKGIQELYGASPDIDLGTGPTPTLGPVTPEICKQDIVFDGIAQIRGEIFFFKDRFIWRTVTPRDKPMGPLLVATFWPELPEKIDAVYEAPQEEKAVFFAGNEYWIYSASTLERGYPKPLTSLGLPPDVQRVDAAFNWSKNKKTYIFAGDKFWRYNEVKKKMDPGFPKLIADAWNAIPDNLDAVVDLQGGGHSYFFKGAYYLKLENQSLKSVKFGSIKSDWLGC

T2: bovine trypsin (Bos taurus, UniProt P00760)
T2 construct: purchased Boehringer-Mannheim
T2 sequence (P00760 24-246): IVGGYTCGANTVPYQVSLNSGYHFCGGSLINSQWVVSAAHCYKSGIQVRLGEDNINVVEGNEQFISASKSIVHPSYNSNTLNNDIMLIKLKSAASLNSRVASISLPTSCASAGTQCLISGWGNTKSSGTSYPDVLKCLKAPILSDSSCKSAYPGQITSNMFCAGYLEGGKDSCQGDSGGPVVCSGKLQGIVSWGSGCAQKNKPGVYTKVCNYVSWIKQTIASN

T3: human leukocyte elastase (HLE) (Homo sapiens, UniProt P08246)
T3 construct: purchased Sigma
T3 sequence (P08246 30-267): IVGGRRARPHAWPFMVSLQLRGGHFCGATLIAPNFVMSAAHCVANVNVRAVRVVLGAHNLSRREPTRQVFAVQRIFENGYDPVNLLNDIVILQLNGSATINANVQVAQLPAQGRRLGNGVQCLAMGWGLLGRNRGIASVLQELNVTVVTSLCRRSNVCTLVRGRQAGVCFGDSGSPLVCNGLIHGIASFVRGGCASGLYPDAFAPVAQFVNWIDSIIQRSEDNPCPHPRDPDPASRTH


What was measured:
Format in all cases: biochemical
[1] = target: T4, human thrombin (Homo sapiens, UniProt P00734); assay: Thrombin digestion of SHEL, SDS-PAGE; settings: for protection from degradation by thrombin in the coacervated state: coacervated at 37° C., 150 mM NaCl
T4 construct: purchased Sigma
Experimental: (§1) A range of enzyme concentrations was originally used to determine the optimal amount for subsequent experiments. Thrombin (0.01–1U), human plasma kallikrein (3×10^−4 to 3×10^−3U), human plasmin (7×10^−5 to 4×10^−7U), bovine trypsin (5×10^−4 to 4×10^−3U), and human leukocyte elastase (1.6×10^−4 to 3.2×10^−3U) were added to 10 μg SHEL or SHELδ26A in 50 mM sodium phosphate buffer pH 7.8 in a total volume of 20 μl. All reactions were performed at 37° C. for one hour. Gelatinase A and B were activated using 0.8 mM APMA at 37° C. for 30 minutes (gelatinase A) or 37° C. for 45 minutes (gelatinase B). Gelatinase A (4×10^−3−4×10^−2) and gelatinase B (2×10^−5−1×10^−4) was added to […] SHEL or SHELd26A in a total volume of […]. Gelatinase B reactions were performed in the presence of 0.75 mM APMA. The degradation profile was analysed by 8, 10 or 12% SDS-PAGE.
(§2) Both SHEL and SHELδ26A were used. Each reaction was analysed by 10% SDS-PAGE.
(§3) Extent of proteolysis was monitored by SDS-PAGE.
Cleavage of GST-SHEL bound to glutathione agarose was performed by washing and resuspending beads in 1× thrombin cleavage buffer (50 mM Tris-HCl pH8.0, 150 mM NaCl, 2.5 mM CaCl2) and adding human thrombin (Sigma) from 0.1 to 1% (w/v) thrombin:fusion protein at 25° C. for one hour (Smith and Johnston 1988). Soluble bacterial lysates used as substrate were incubated similarly with 1× thrombin cleavage buffer, added from a 10× stock. GST (26 kDa) was evident on beads by SDS-PAGE but SHEL could not be identified in the supernatant in numerous experiments. To determine whether thrombin was degrading SHEL, the entire cell lysate was subject to cleavage with increasing concentrations of thrombin. […] GST was clearly present. However, with 0.01U thrombin a band at approximately 64 kDa could be discerned which may represent SHEL although this was not nearly as intense as the GST band.

[2] = target: T5, human plasma kallikrein (Homo sapiens, UniProt P03952); assay: Kallikrein digestion of SHEL, SDS-PAGE; settings: for degradation by human plasma kallikrein: 50 mM sodium phosphate pH 7.8, 37° C.; for protection from degradation by kallikrein in the coacervated state: coacervated at 37° C., 150 mM NaCl
T5 construct: purchased Sigma
Experimental: as §1, §2, §3

[3] = system: protease; assay: Protease resistance of SHELδ26A compared with SHEL
Experimental: as §1

[4] = target: T6, human plasmin (Homo sapiens, UniProt P00747); assay: Plasmin digestion of SHEL, SDS-PAGE; settings: for protection from degradation by plasmin in the coacervated state: coacervated at 37° C., 150 mM NaCl
T6 construct: purchased Sigma
Experimental: as §1, §2, §3

[5] = target: T1, Gelatinase A (72 kDa gelatinase); assay: Gelatinase A digestion of SHEL; settings: SDS-PAGE and zymogram analysis
Experimental: as §1

[6] = target: T2, bovine trypsin; assay: Trypsin digestion of SHEL, SDS-PAGE
Experimental: as §1, §2, §3

[7] = target: T3, human leukocyte elastase (HLE); assay: HLE digestion of SHEL, SDS-PAGE
Experimental: as §1, §2, §3

[8] = target: T7, gelatinase B (92 kDa gelatinase) (Homo sapiens, UniProt P14780); assay: Gelatinase B digestion of SHEL; settings: SDS-PAGE and zymogram analysis
T7 construct: purchased Boehringer Mannheim Roche Diagnostics
Experimental: as §1

[9] = 50 mM sodium phosphate pH 7.8, 37° C.
[10] = coacervated at 37° C., 150 mM NaCl

T6 sequence (P00747 97-810): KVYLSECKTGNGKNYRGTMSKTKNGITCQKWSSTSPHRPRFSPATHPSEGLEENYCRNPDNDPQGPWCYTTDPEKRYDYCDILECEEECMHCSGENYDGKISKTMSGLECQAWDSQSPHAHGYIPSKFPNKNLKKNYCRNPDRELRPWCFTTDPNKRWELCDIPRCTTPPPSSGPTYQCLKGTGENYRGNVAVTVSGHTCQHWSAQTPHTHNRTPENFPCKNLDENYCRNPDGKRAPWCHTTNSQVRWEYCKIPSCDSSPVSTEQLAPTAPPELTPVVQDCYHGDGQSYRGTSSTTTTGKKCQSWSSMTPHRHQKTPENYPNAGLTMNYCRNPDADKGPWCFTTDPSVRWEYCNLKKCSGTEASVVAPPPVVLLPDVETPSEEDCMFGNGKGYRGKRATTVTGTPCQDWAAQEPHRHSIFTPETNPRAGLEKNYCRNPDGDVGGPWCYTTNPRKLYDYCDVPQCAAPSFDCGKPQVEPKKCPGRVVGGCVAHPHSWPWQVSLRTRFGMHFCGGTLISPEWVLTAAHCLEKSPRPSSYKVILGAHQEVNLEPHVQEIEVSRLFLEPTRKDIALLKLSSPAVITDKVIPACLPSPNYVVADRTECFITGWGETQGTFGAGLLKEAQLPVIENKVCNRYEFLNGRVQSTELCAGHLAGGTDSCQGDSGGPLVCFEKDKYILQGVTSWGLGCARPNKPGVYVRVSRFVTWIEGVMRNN
T5 sequence (P03952 20-638): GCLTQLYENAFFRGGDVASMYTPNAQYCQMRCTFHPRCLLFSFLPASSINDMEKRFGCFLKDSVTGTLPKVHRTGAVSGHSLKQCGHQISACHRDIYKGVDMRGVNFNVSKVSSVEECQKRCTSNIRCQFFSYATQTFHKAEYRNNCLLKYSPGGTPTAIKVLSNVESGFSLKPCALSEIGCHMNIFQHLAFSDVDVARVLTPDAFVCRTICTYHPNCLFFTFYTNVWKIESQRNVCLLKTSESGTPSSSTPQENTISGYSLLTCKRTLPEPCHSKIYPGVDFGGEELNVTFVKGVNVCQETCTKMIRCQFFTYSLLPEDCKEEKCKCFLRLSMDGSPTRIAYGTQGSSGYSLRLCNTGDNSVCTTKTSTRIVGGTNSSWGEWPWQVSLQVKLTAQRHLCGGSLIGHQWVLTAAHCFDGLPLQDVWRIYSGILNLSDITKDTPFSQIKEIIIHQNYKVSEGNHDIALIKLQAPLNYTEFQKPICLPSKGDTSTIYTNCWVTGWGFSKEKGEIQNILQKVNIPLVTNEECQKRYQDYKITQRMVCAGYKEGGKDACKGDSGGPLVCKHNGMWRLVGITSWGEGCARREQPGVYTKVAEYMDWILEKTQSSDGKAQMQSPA
T7 sequence (P14780 107-707 limits assumed, species assumed): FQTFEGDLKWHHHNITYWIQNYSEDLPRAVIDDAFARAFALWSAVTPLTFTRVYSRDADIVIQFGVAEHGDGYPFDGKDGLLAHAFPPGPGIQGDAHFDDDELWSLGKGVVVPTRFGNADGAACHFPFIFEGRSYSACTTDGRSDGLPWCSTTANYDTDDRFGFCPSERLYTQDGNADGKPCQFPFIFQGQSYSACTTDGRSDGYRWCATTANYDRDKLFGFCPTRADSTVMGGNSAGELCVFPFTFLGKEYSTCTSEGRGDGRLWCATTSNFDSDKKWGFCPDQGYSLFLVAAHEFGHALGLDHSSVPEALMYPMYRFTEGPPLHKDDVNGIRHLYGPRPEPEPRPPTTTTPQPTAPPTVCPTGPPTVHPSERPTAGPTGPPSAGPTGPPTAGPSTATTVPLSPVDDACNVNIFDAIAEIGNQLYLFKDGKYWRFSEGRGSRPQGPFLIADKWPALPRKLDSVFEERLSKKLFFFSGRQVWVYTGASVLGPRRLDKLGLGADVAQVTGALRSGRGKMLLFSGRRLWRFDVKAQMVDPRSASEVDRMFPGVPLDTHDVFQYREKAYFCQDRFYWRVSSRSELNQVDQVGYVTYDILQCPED

Molecule	protection from degradation by thrombin in the coacervated state [1]	degradation by human plasma kallikrein [2]	protection from degradation by kallikrein in the coacervated state [2]	protease resistance relative to SHEL [3]	protection from degradation by plasmin in the coacervated state [4]	cleavage of fusion protein by thrombin ([1]; thrombin cleavage buffer, 25° C., one hour)	degradation by thrombin ([1]; 50 mM sodium phosphate pH 7.8, 37° C., one hour)	digestion by gelatinase A [5]	degradation by bovine trypsin [6, 9]	protection from degradation by trypsin in the coacervated state [6, 10]	degradation by human leukocyte elastase [7, 9]	protection from degradation by HLE in the coacervated state [7, 10]	degradation by human plasmin [4, 9]	digestion by gelatinase B [8]
SHELδ26A: derived from SHEL by removing sequence corresponding to exon 26A; SEQ ID NO:5; reduced tropoelastin derivative (protein, listed as Homo sapiens) GGVPGAIPGGVPGGVFYPGAGLGALGGGALGPGGKPLKPVPGGLAGAGLGAGLGAFPAVTFPGALVPGGVADAAAAYKAAKAGAGLGGVPGVGGLGVSAGAVVPQPGAGVKPGKVPGVGLPGVYPGGVLPGARFPGVGVLPGVPTGAGVKPKAPGVGGAFAGIPGVGPFGGPQPGVPLGYPIKAPKLPGGYGLPYTTGKLPYGYGPGGVAGAAGKAGYPTGTGVGPQAAAAAAAKAAAKFGAGAAGVLPGVGGAGVPGVPGAIPGIGGIAGVGTPAAAAAAAAAAKAAKYGAAAGLVPGGPGFGPGVVGVPGAGVPGVGVPGAGIPVVPGAGIPGAAVPGVVSPEAAAKAAAKAAKYGARPGVGVGGIPTYGVGAGGFPGFGVGVGGIPGVAGVPSVGGVPGVGGVPGVGISPEAQAAAAAKAAKYGVGTPAAAAAKAAAKAAQFGLVPGVGVAPGVGVAPGVGVAPGVGLAPGVGVAPGVGVAPGVGVAPGIGPGGVAAAAKSAAKVAAKAQLRAAAGLGAGIPGLGVGVGVPGLGVGAGVPGLGVGAGVPGFGAVPGALAAAKAAKYGAAVPGVLGGLGALGGVGIPGGVVGAGPAAAAAAAKAAAKAAQFGLVGAAGLGGLGVGGLGVPGVGGLGGIPPAAAAKAAKYGAAGLGGVLGGAGQFPLGGVAARPGFGLSPIFPGGACLGKACGRKRK	significant protection from proteolysis	highly specific and limited proteolysis	significant protection from proteolysis	higher protease resistance than SHEL	No protection was seen	–	–	–	–	–	–	–	–	–
GST-SHEL: fusion of glutathione S-transferase (GST) with SHEL (protein, left off: a dimerising Fc or GST) GGVPGAIPGGVPGGVFYPGAGLGALGGGALGPGGKPLKPVPGGLAGAGLGAGLGAFPAVTFPGALVPGGVADAAAAYKAAKAGAGLGGVPGVGGLGVSAGAVVPQPGAGVKPGKVPGVGLPGVYPGGVLPGARFPGVGVLPGVPTGAGVKPKAPGVGGAFAGIPGVGPFGGPQPGVPLGYPIKAPKLPGGYGLPYTTGKLPYGYGPGGVAGAAGKAGYPTGTGVGPQAAAAAAAKAAAKFGAGAAGVLPGVGGAGVPGVPGAIPGIGGIAGVGTPAAAAAAAAAAKAAKYGAAAGLVPGGPGFGPGVVGVPGAGVPGVGVPGAGIPVVPGAGIPGAAVPGVVSPEAAAKAAAKAAKYGARPGVGVGGIPTYGVGAGGFPGFGVGVGGIPGVAGVPSVGGVPGVGGVPGVGISPEAQAAAAAKAAKYGVGTPAAAAAKAAAKAAQFGLVPGVGVAPGVGVAPGVGVAPGVGLAPGVGVAPGVGVAPGVGVAPGIGPGGVAAAAKSAAKVAAKAQLRAAAGLGAGIPGLGVGVGVPGLGVGAGVPGLGVGAGVPGFGAGADEGVRRSLSPELREGDPSSSQHLPSTPSSPRVPGALAAAKAAKYGAAVPGVLGGLGALGGVGIPGGVVGAGPAAAAAAAKAAAKAAQFGLVGAAGLGGLGVGGLGVPGVGGLGGIPPAAAAKAAKYGAAGLGGVLGGAGQFPLGGVAARPGFGLSPIFPGGACLGKACGRKRK	–	–	–	–	–	extensively and in a reproducible manner	–	–	–	–	–	–	–	–
SHEL: recombinant human tropoelastin splice form, amino acid sequence SEQ ID NO:4, obtained by the method of WO94/14958 (protein, listed as Homo sapiens) GGVPGAIPGGVPGGVFYPGAGLGALGGGALGPGGKPLKPVPGGLAGAGLGAGLGAFPAVTFPGALVPGGVADAAAAYKAAKAGAGLGGVPGVGGLGVSAGAVVPQPGAGVKPGKVPGVGLPGVYPGGVLPGARFPGVGVLPGVPTGAGVKPKAPGVGGAFAGIPGVGPFGGPQPGVPLGYPIKAPKLPGGYGLPYTTGKLPYGYGPGGVAGAAGKAGYPTGTGVGPQAAAAAAAKAAAKFGAGAAGVLPGVGGAGVPGVPGAIPGIGGIAGVGTPAAAAAAAAAAKAAKYGAAAGLVPGGPGFGPGVVGVPGAGVPGVGVPGAGIPVVPGAGIPGAAVPGVVSPEAAAKAAAKAAKYGARPGVGVGGIPTYGVGAGGFPGFGVGVGGIPGVAGVPSVGGVPGVGGVPGVGISPEAQAAAAAKAAKYGVGTPAAAAAKAAAKAAQFGLVPGVGVAPGVGVAPGVGVAPGVGLAPGVGVAPGVGVAPGVGVAPGIGPGGVAAAAKSAAKVAAKAQLRAAAGLGAGIPGLGVGVGVPGLGVGAGVPGLGVGAGVPGFGAGADEGVRRSLSPELREGDPSSSQHLPSTPSSPRVPGALAAAKAAKYGAAVPGVLGGLGALGGVGIPGGVVGAGPAAAAAAAKAAAKAAQFGLVGAAGLGGLGVGGLGVPGVGGLGGIPPAAAAKAAKYGAAGLGGVLGGAGQFPLGGVAARPGFGLSPIFPGGACLGKACGRKRK	significantly protected from degradation	specific and reproducible degradation	significantly protected from degradation	–	not by plasmin	–	easily degraded	digested	complete degradation with prolonged treatment	some inhibition	extensive degradation if left for extended period	some inhibition	at high concentration extensive degradation occurred	digested
